Consider one substance from PMC4051121.

The target of this assay is GltPh-K55C-A364C cross-linked with mercury (Pyrococcus horikoshii) (UniProt O59010). Put plainly: crystal structure; GltPh^in crystals grown at 4°C in 14–20% PEG 400, 0.1 M potassium citrate pH 5.0–6.0, with lipids and n-decyl-α-D-maltopyranoside; soaked in Tl+ or alkali-free solutions; trimer with three protomers.

“GltPh-K55C-A364C cross-linked with mercury (from UniProt O59010 1-425) (natural protein)”: the stoichiometry N worked out at 3.

One may read the stoichiometry N as a count of units in the complex or per binding partner.
